The text below walks through data of US9314499.

The target of the series is T1, Histidine-tagged recombinant human Annexin A2.
T1 chain: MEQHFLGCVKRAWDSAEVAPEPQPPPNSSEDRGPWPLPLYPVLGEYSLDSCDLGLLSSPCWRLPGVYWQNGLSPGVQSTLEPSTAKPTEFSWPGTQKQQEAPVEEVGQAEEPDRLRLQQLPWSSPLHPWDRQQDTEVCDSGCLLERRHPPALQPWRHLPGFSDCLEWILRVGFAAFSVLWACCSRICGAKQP

B1: tissue plasminogen activator (protein)
chain: SYQVICRDEKTQMIYQQHQSWLRPVLRSNRVEYCWCNSGRAQCHSVPVKSCSEPRCFNGGTCQQALYFSDFVCQCPEGFAGKCCEIDTRATCYEDQGISYRGTWSTAESGAECTNWNSSALAQKPYSGRRPDAIRLGLGNHNYCRNPDRDSKPWCYVFKAGKYSSEFCSTPACSEGNSDCYFGNGSAYRGTHSLTESGASCLPWNSMILIGKVYTAQNPSAQALGLGKHNYCRNPDGDAKPWCHVLKNRRLTWEYCDVPSCSTCGLRQYSQPQFRIKGGLFADIASHPWQAAIFAKHRRSPGERFLCGGILISSCWILSAAHCFQERFPPHHLTVILGRTYRVVPGEEEQKFEVEKYIVHKEFDDDTYDNDIALLQLKSDSSRCAQESSVVRTVCLPPADLQLPDWTECELSGYGKHEALSPFYSERLKEAHVRLYPSSRCTSQHLLNRTVTDNMLCAGDTRSGGPQANLHDACQGDSGGPLVCLNDGRMTLVGIISWGLGCGQKDVPGVYTKVTNYLDWIRDNMRP
Turning to B1, the “tPA-converted plasmin generation (in vitro plasmin activity assay, fluorogenic substrate D-Val-Leu-Lys-AMC)” value was “a combination of rA2 (5 µg/ml) and tPA (2.5 µg/ml) significantly amplified tPA-converted plasmin generation”.
